Laboratory results from US20200339678A1 (RIGEL PHARMACEUTICALS, published 2020).
Residue numbers refer to the chain shown, from its start. Blank lines part the entries; values can stand above or below the binder they belong to.

What was measured:
[1] = biological target: T1, His-tagged recombinant Human TIGIT (human, UniProt Q495A1 22-141); test: ELISA, coated His-tagged human TIGIT
T1 construct: also called VSIG9; VSTM3; not shown: His tag
T1 sequence (looked up): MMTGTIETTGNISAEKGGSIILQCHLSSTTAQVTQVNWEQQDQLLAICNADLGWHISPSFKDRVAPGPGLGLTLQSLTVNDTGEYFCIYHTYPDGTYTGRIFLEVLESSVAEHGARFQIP
Protocol: (§1) Binding affinities for antigen binding to anti-TIGIT monoclonal antibodies were determined by ELISA. […] Antibodies to be tested were diluted to 1 μM in PBS buffer containing 1% BSA and diluted 3-fold in a 10-point curve. […] Detection of the secondary antibody was determined using streptavidin-HRP and TMB reagent. All assays were performed at room temperature. Curve-fitting software was used to determine the EC₅₀ for each antibody.

[2] = biological target: T2, His-tagged recombinant Mouse TIGIT (mouse, UniProt P86176 29-148, limits assumed); test: ELISA, coated His-tagged mouse TIGIT
T2 construct: not shown: His tag
T2 sequence (looked up): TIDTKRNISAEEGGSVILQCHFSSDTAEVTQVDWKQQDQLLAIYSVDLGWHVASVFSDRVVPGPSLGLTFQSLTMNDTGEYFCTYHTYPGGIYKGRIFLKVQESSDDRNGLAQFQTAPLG
Protocol: as §1

EC50 [1]: 83.2 nM
EC50 [2]: 108 nM
B1: Ab172 (Fab, V domains shown)
VH: EVQLLESGGGLVQPGGSLRLSCAASGFTFSSYSMHWVRQAPGKGLEWVSSIKSSAGYTYYADSVKGRFTISRDNSKNTLYLQMNSLRAEDTAVYYCARVPYDYWIDYWGQGTLVTVSS
VL: not shown
notes: ARV set

EC50 [1]: 34.3 nM
EC50 [2]: 14.1 nM
B2: Ab124 (Fab, V domains shown)
VH: B1 VH with S49A, S53G, G56S, T58S, I105M
VL: not shown
notes: ARV set

EC50 [1]: 357 nM
EC50 [2]: 100 nM
B3: Ab95 (Fab, V domains shown)
VH: B1 VH with S33A, H35S, S49A, A55T, T58I, Y59G, V99E, D102S, I105L
VL: not shown
notes: ARE set

EC50 [1]: 177 nM
EC50 [2]: 41.9 nM
B4: Ab74 (Fab, V domains shown)
VH: B1 VH with S49A, K52S, S54N, Y57T, Y59G
VL: not shown
notes: ARV set

EC50 [1]: 27.6 nM
EC50 [2]: 58 nM
B5: Ab49 (Fab, V domains shown)
VH: B1 VH with S49A, A55G, T58K, Y59S, V99G, Y103V
VL: not shown
notes: ARG set

EC50 [1]: 40.3 nM
EC50 [2]: 181 nM
B6: Ab1 (Fab, V domains shown)
VH: B1 VH with S33A, S50G, K52S, S54N, A55G, Y57S, Y59S, D102S, Y103V
VL: not shown
notes: ARV set; also called clone Ab1

EC50 [1]: 44.9 nM
EC50 [2]: 104 nM
B7: Ab191 (Fab, V domains shown)
VH: B1 VH with G56S, T58S, Y59S, I105M
VL: not shown
notes: ARV set

EC50 [1]: 8.2 nM
EC50 [2]: 95 nM
B8: Ab46 (Fab, V domains shown)
VH: B1 VH with S49A, S50G, K52W, A55G, Y57T, Y59S, D102G, Y103V, I105M
VL: not shown
notes: ARV set

EC50 [1]: 34.9 nM
EC50 [2]: 361 nM
B9: Ab47 (Fab, V domains shown)
VH: B1 VH with H35N, S49A, A55S, G56S, Y59S, V99G, Y103T, I105L
VL: not shown
notes: ARG set

EC50 [1]: 19.8 nM
EC50 [2]: 64.8 nM
B10: Ab19 (Fab, V domains shown)
VH: B1 VH with H35S, S49A, S50N, S54N, A55S, V99E, D102S, Y103V, I105L
VL: not shown
notes: ARE set

EC50 [1]: 81.7 nM
EC50 [2]: 235 nM
B11: Ab72 (Fab, V domains shown)
VH: B1 VH with S49A, S50A, S54D, Y57T, T58S, Y59G
VL: not shown
notes: ARV set

EC50 [1]: 289 nM
EC50 [2]: 74.4 nM
B12: Ab23 (Fab, V domains shown)
VH: EVQLLESGGGLVQPGGSLRLSCAASGFTFSSYAMSWVRQAPGKGLEWVARINSDSSNTYYADSVKGRFTISRDNSKNTLYLQMNSLRAEDTAVYYCAREPYSYWLDYWGQGTLVTVSS
VL: not shown
notes: ARE set

EC50 [1]: 11 nM
EC50 [2]: 9.5 nM
B13: Ab41 (Fab, V domains shown)
VH: B1 VH with S49A, A55G, T58I, Y59S, I105M
VL: not shown
notes: ARV set

EC50 [1]: 4.3 nM
EC50 [2]: 14.7 nM
B14: Ab32 (Fab, V domains shown)
VH: B1 VH with S49A, S50N, K52N, S54N, A55G, Y57N, Y59G, Y103V, I105M
VL: not shown
notes: ARV set

EC50 [1]: 155 nM
EC50 [2]: 228 nM
B15: Ab179 (Fab, V domains shown)
VH: B12 VH with R50S, N52K, D54N, S55T, S56G, N57S, Y103V
VL: not shown
notes: ARE set

EC50 [1]: 14.6 nM
EC50 [2]: 11.5 nM
B16: Ab7 (Fab, V domains shown)
VH: B12 VH with R50S, N52K, D54S, N57S, T58I, Y59S
VL: not shown
notes: ARE set

EC50 [1]: 68.1 nM
EC50 [2]: 65.7 nM
B17: Ab76 (Fab, V domains shown)
VH: B1 VH with S30D, S50A, K52S, S53G, A55G, Y57S, D102S, Y103V
VL: not shown
notes: ARV set
